We go through 4 molecules from patent US20210277061A1 (UNIVERSITY OF HONG KONG, published 2021).

In assay [1] the target is T1, AF9 YEATS domain, His-AF9 (1-138) (human, UniProt P42568 1-138).
T1 construct: Expressed in E. coli; not shown: His tag
T1 sequence (looked up): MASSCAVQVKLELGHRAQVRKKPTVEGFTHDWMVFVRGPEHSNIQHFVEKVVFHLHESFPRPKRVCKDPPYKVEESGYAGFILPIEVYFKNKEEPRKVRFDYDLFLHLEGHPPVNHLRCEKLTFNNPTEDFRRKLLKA
In words: ITC. (In general: Isothermal titration calorimetry measures the heat released or taken up as one component is titrated into another.)

Assay [2] has as its target T1, AF9 YEATS domain, His-AF9 (1-138). In words: photo-cross-linking competition vs photoaffinity probe, in-gel fluorescence.
The target of assay [3] is T2, ENL YEATS domain, His-SUMO-ENL (1-138) (human, UniProt Q03111 1-138).
T2 construct: Expressed in E. coli; not shown: His-SUMO tag
T2 sequence (looked up): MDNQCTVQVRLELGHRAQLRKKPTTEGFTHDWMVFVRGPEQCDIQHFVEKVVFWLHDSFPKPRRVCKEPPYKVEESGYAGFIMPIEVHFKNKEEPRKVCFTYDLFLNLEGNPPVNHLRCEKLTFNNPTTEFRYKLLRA
The description is as above.

Assay [4] concerns the target T1, AF9 YEATS domain, His-AF9 (1-138). Nature of the assay: ITC. The source holds these as a separate data set.
Assay [5] has the same target. Nature of the assay: photo-cross-linking-based competition against the photoaffinity probe (probe 1) on AF9 YEATS domain, in-gel fluorescence.
Assay [6] addresses T3, Gas41 YEATS domain, His-Gas41 (15-159) (human, UniProt O95619 15-159).
T3 construct: Expressed in E. coli; not shown: His tag
Nature of the assay: photo-cross-linking competition vs photoaffinity probe, in-gel fluorescence.

Assay [7] addresses T4, YEATS2 YEATS domain, His-SUMO-YEATS2 (201-332) (human, UniProt Q9ULM3 201-332).
T4 construct: range 201-332; Expressed in E. coli; also called YEATS2 domain; not shown: His-SUMO tag
T4 sequence (looked up): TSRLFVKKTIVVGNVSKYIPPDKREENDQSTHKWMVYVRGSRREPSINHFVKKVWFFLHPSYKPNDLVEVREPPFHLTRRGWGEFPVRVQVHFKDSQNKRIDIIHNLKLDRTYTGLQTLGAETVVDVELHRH
The description is as above.

In assay [8] the target is T1, AF9 YEATS domain, His-AF9 (1-138). Nature of the assay: method and target not named in the sentence (AF9 YEATS by context).
Assay [9] shares this target. In words: photo-cross-linking competition vs photoaffinity probe, in-gel fluorescence. This is another data set of the same source.
In assay [10] the target is T3, Gas41 YEATS domain, His-Gas41 (15-159). The assay is described as above. The source holds these as a separate data set.
The target of assay [11] is T4, YEATS2 YEATS domain, His-SUMO-YEATS2 …. The assay is described as above. The source holds these as a separate data set.
For assay [12] the target is unchanged. In words: photo-cross-linking-based competition against the photoaffinity probe on the YEATS2 YEATS domain, in-gel fluorescence.
For assay [13], the target named is T2, ENL YEATS domain, His-SUMO-ENL (1-138). In words: photo-cross-linking competition vs photoaffinity probe, in-gel fluorescence. This is another data set of the same source.

Like-named read-outs stand apart in the source and are kept apart here. No end group written: not given here. *: point of attachment. Oxazole(5-CO) = O=C(c1cnco1)*; Crotonyl(E) = C/C=C/C(=O)*; 2Furoyl = O=C(c1ccco1)*; Cbz = O=C(OCc1ccccc1)*

T3 sequence (O95619 15-159 limits assumed): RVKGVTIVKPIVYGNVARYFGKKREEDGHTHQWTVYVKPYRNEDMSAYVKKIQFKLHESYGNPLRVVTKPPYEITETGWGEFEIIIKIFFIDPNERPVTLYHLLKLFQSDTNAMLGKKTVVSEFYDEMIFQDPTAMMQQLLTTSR

B1: compound 85 (positive control), H3K9cr peptide (peptide)
peptide: KQTARK(Crotonyl(E))STGG-NH2
modifications: N-terminus assumed
SMILES: C/C=C/C(=O)NCCCC[C@H](NC(=O)[C@H](CCCNC(=N)N)NC(=O)[C@H](C)NC(=O)[C@@H](NC(=O)[C@H](CCC(N)=O)NC(=O)[C@@H](N)CCCCN)[C@@H](C)O)C(=O)N[C@@H](CO)C(=O)N[C@H](C(=O)NCC(=O)NCC(N)=O)[C@@H](C)O
For B1, the Kd – broadly, the free concentration of one partner at which half of the binding sites on the other are occupied at equilibrium, for simple one-to-one binding – in [1] is 14.8 µM. Moreover, the IC50 – broadly, the concentration that inhibits the measured activity by half – in assay [2] came to 6 µM. Besides, in [3], the IC50 turned out to be 52.7 µM. In addition, in [4], binding was characterised by a dissociation constant (Kd) of 14.7 µM, the “N (sites)” value came to 0.96 sites, the ΔH is -11.9 kcal/mol and the ΔS was -17.8 cal/mol/deg.

B2: compound 1 (XL-01) (peptide)
peptide: KQTARKSTGG-NH2
modifications: not fully specified (residue 6); also: Lys6 acylated with group R, structure drawing only
notes: also called 4.1
For the molecule B2, the half-inhibitory concentration (IC50) in [5] stood at 31.8 µM; in assay [2], 27.9 µM.

Regarding Cbz-QTARK(Oxazole(5-CO))-NH2 (also called 4.13a) [compound 27 (XL-13a)], the IC50 is 0.24 µM in [2]; 14.5 µM in [6]; 98.7 µM in [7]; 0.24 µM in assay [9]; 14.5 µM in assay [10]; 98.7 µM in assay [11]. The dissociation constant Kd in assay [8] worked out at 0.131 µM.

B3: compound 26 (XL-07j) (peptide)
peptide: Cbz-QTARK(2Furoyl)-NH2
SMILES: C[C@H](NC(=O)[C@@H](NC(=O)[C@H](CCC(N)=O)NC(=O)OCc1ccccc1)[C@@H](C)O)C(=O)N[C@@H](CCCNC(=N)N)C(=O)N[C@@H](CCCCNC(=O)c1ccco1)C(N)=O
notes: also called 4.7j
With B3, the IC50 stood at 42.2 µM in [12]; 0.26 µM in assay [2]; 1.3 µM in [3]; 123 µM in [6]; 42.4 µM in assay [7]; 0.26 µM in assay [9]. For the same molecule, the values for the half-maximal inhibitory concentration (IC50) in assay [13], in assay [10] and in assay [11] were 1.3 µM, 123 µM and 42.4 µM, respectively. The Kd in [8] is 0.33 µM.
